Experimental data from article PMC12287357 (2025).

Target: SteE_pS141pY143
Assay: BLI

B1: recombinant His6-STAT3^127-715 (domain or fragment)
chain: GQANHPTAAVVTEKQQMLEQHLQDVRKRVQDLEQKMKVVENLQDDFDFNYKTLKSQGDMQDLNGNNQSVTRQKMQQLEQMLTALDQMRRSIVSELAGLLSAMEYVQKTLTDEELADWKRRQQIACIGGPPNICLDRLENWITSLAESQLQTRQQIKKLEELQQKVSYKGDPIVQHRPMLEERIVELFRNLMKSAFVVERQPCMPMHPDRPLVIKTGVQFTTKVRLLVKFPELNYQLKIKVCIDKDSGDVAALRGSRKFNILGTNTKVMNMEESNNGSLSAEFKHLTLREQRCGNGGRANCDASLIVTEELHLITFETEVYHQGLKIDLETHSLPVVVISNICQMPNAWASILWYNMLTNNPKNVNFFTKPPIGTWDQVAEVLSWQFSSTTKRGLSIEQLTTLAEKLLGPGVNYSGCQITWAKFCKENMAGKGFSFWVWLDNIIDLVKKYILALWNEGYIMGFISKERERAILSTKPPGTFLLRFSESSKEGGVTFTWVEKDISGKTQIQSVEPYTKQQLNNMSFAEIIMGYKIMDATNILVSPLVYLYPDIPKEEAFGKYCRPESQEHPEADPGSAAPYLKTKFICVTP
With B1 the Kd was 1400 nM.
